Experiment: yeast display, Sf9 membrane polyspecificity reagent, FACS + sequencing; frameworks hold sequencing errors
Summary of the method: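 Synthetic nanobody libraries on Saccharomyces cerevisiae BJ5465 were galactose-induced for 36–48 hours, stained 1 hour at 4 °C with 10% biotinylated, detergent-solubilized Sf9 membrane reagent and enriched on streptavidin microbeads. FACS then separated cells into low and high (top ~1%) gates by anti-HA (expression) and streptavidin (reagent binding) fluorescence. Genes were colony-PCR amplified, MiSeq 2 × 250 sequenced and CDR-length filtered. A clone's polyreactivity label is that of its gate of origin.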

QVQLVESGGGLVQAGGSLRLSCAASGSIFSGYVKGWYRQAPGKDMELVAAISGSGGSTYYADSVKGRFTISRDNAKNTVYFQMNSLKPEDTAVYYCNVDRSPTHIVGYGYWGQGTQVTVSS
polyreactivity (PSR sort gate): low polyreactivity

QVQLVESGGGLVQAGGSLRLSCAASGRTFYSYAMGWYRKAPGKERELVAAISASGGRTYYADSVKGRFTISRDNAKNTVYLQMNSLKPEDTAVYYCAAYPWYRMWGQGTQVTVSS
polyreactivity (PSR sort gate): high polyreactivity

QVQLVESGGGVVQAGGSLRLSCAASGFTFVWHAMGWYRQAPGKEREFVAAISRRGGTTNYADSVKGRFTISRDNAKNTVYLQMNSLKPEDTAVYYCNIEPRYRSSGGMDYWGQGTQVTASS
polyreactivity (PSR sort gate): high polyreactivity

QVQLVESGGGLVQAGGSLRLSCAASGSIFQYYVMGWYRQAPGKERELVAAISQSGGRTYYADSVKGRFTISRDNAKNTVYLQMNSLKPEDTAVYYCAADSRNAEYDYWGQGTQVTVSS
polyreactivity (PSR sort gate): high polyreactivity

QVQLVESGGGLVQAGGSLRLSCAASGRISRVYVMGWYRQAPGKERELVAAISFRGGSTFYADSVKGRFTISRDNAKNTVYLQMNSLKPEDTAVYYCAATVYPLAYDYWGQGTQVTVSS
polyreactivity (PSR sort gate): high polyreactivity

QVQLVESGGGLVQAGGSLRLSCAASGSIFLPNAMGWYRQAPGKERELVARITSTGSTNYADSVKGRFTISRDNAKNTVYLQMNSLKPEDTAVYYCAADYYPFYVKREQAYPDIPYDSWGQGTQVTVSS
polyreactivity (PSR sort gate): low polyreactivity

QVQLVESGGGLVQAGGSLRLSCAASGYIFYPYTMGWYRPAPGKERELVAAITRSGSSTYYADSVKGRFTISRDNAKNTVYLQMNSLKPEDTAVYYCAAQRVNWYLSPSLYYYWGQGTQVTVSS
polyreactivity (PSR sort gate): high polyreactivity

QVQLVESGGGLDQAGGSLRLSCAASGIIFPVYARGGYRQAPGKERELVAAISSVGSTNYADSVKGRFTISRDNAKNTVYLQMNSLKPEDTAVYYCAVDWAQEDGYWGQGPQVTVSS
polyreactivity (PSR sort gate): low polyreactivity

QVQLVESGGGLVQAGGSLRLICAASGSTFDINAMGWYRQAPGKERELVAAITWRSGRTYYADSVKGRFTISRDNAKNTVYLQMNSLKPEDTAVYYCAADDTSYYIYSYDYWGQGTQVTVSS
polyreactivity (PSR sort gate): low polyreactivity

QVQLVESGGGLVQAGGSLRLSCAASGLTFIDYAMGWYRQAPGKERELVAAITKSGGGTYYADSVKGRFTISRDNAKNTVYLQMNSLKPEDTAVYYCAAVYRTRLYYYWGQGTQVTVSS
polyreactivity (PSR sort gate): high polyreactivity

QVQLVESGGGLVQAGGSLRLSCAASGRIFRYYAMGWYRQAPGKERELVAAISWSGGRTYYADSVKGRFTISRDNAKNSVYLQMNSLIPEDTAVFYCYAGYLYPGYFVREYDYWGQGTQVTVSS
polyreactivity (PSR sort gate): high polyreactivity

QVQLVESGGGLVQAGGSLRLSCAASGSIFGYYTIGWYRQAPGKEREFVAAITQSGGSTYYADSVKGRFTISRDNAKNTVYLQMNSLKPEDTAVYYCAKQGYLKWGGTGDYWGQGTQVTVSS
polyreactivity (PSR sort gate): high polyreactivity

QVQLVESGGGLVQEGGSLRLSCAASGRTFEQNAMGWYRQAPGKERELVASITSVGSTDYADSVKGRFTISRDNAKNTVYLQMNSLKTEDTAVYYCAKTLGSQNYDFDYWGQGTQVTVSS
polyreactivity (PSR sort gate): low polyreactivity

QVHLVESGGGLVQAGGSLRLSCAASGRIFAGYGMGWYRQAPGKERELVAAISSGGSTYYADSVKGRFTISRDNAKNPVYLQINSLKPEDTAVYYCAADTYTYYDYMARYYYWGQGTQVTVSS
polyreactivity (PSR sort gate): low polyreactivity

QVQLVESGGGLVQAGGSLRLSCAASGSTFESNAMGWYRQAPGKERELVAAISTSGGSTYYADSVKGRFTISRDNAKNTVYLQMNSLKPEDKAVYYCNAYPEAVRWKYNYWGQGTQVTVSS
polyreactivity (PSR sort gate): low polyreactivity

QVQLVESGGGLVQAGGSLRLSCAASGRIFRFYAMGWYRQAPGKERELVAAISSSAGGTYADSVKGRFTISRDYAKNTVYLQMNSRKPEDTAVYYCAARAYALYDWGQGTQVTVSS
polyreactivity (PSR sort gate): high polyreactivity

QVQLVESGGGLVQAGGSLRLSCASSGFAYSYYAMGWYRQAPGKEREFVASIDWSGGSTYYADSVKGRITISRDNAMNTVYLQMNSLKPEATAVYYCAAELDYFPGYDSWGQGTQVTVSS
polyreactivity (PSR sort gate): low polyreactivity

QVQLVESGGGLVQAGGSLGLSCAASGRTFQQNAMGWYRQAPGKERELVAALNSRGGRTYYADYVKGRFTISRDNAKNTVYLQMNSLKPEDTAVYYCAARYYWGQGTEVTVSS
polyreactivity (PSR sort gate): high polyreactivity

QVQHVESGGGLVHAGGSLRLSCAASGTTFYFNPMGWSRQAPGKERELVASITWRGVSTYYADSVKGRFTISRDNAKNTVYLHMNSLNPEDTAVYYCAVAAGIPQRRFYYWGQGTQVTVSS
polyreactivity (PSR sort gate): high polyreactivity

QVQLVESGGGLVQAGGSLRLSCAASGRILVYYAMGWYRQAPGKERELVAAIRSSGSSTYYSDSVKGRFTISRDNAKNTVYLQMNSLKPEDTAVYYCAAYYYIGGKYGSQVYEYDYWGQGTQVTVSS
polyreactivity (PSR sort gate): low polyreactivity

QVQLVESGAGLVQAGGSLRLSCAASGSISRYYAMGWYRQAPGKERELVAAISVSGGSTYYADSVKGRFTISRDNAKNTVYLQMNSLKPEHTAVYYCKKVRLSDYDWGQGTQVTVSS
polyreactivity (PSR sort gate): high polyreactivity

QVQHVESGGGLDQAGGSLRLSCAASGFIFGWYAMGWYRPAPGKERELVAAITWSGVRTYYADSVKGRFTISRDNAKNTVYLQMHSLKPEDTAVYYCARAGGSVGRGYKDQDGRGDYWGQGTEVTVSS
polyreactivity (PSR sort gate): low polyreactivity

QVQLVESGGGLVQAGGSLRLSCAASGRIFSFYTMGWYRQAPGKERELVAAITWRGGSTYYADSVKGRFTISRDNAKNTVYLQMNSLKPEDTAVYYCAAEVYGAVYDYWGQGTQVTVSS
polyreactivity (PSR sort gate): low polyreactivity

QVQLVESGGGLVQAGGSLRLSCAASGIIFQSYTMGWYRPATGKERELVAAIDSGGSTYYADSVKGRFTISRDNAKNTVYLQMNSLKREDTAVYYCAAEPDTYWYTFYYWGQGTQVTVSS
polyreactivity (PSR sort gate): low polyreactivity

QVQLVESGGGLVQAGGSLRLSCAASGSIFRRYTMGWYRQAPGKEREFVAVISRDGGSTYYADSVKGRFTISRDNAKNTVYLQMNSLKPEDTAVYYCAARLVRRYDYDYWGQGTQVTVSS
polyreactivity (PSR sort gate): high polyreactivity

QLQLGESGGGLVQAGGSLRLSCAGSGSIFNYYAMGWYRQATGKERELVAAITSGGSTYYADSVKGRFTISRDNAKNTVYLQMNSLKPEDTAVYYCNKAFPYIYEYWGQGTQVTVSS
polyreactivity (PSR sort gate): low polyreactivity

QVQLVESAGGLVQAGGSLRLICAASGLIFYRNTMGWYRQAPGKERELVAAISVSGGSTNYADSVKGRFTISRDNAKNTVYLQMNILKPEDTAVYFCATRVNYGYYYWGQGTQVTVSS
polyreactivity (PSR sort gate): high polyreactivity

QVQLEESGGGLVQAGGSLRLSCAAYGSIFSPYAMGWYRHAPGKERELVAAISGRGTSTYYADSVKGRFTISRDNAKNTVDLQMNTLKPEDTEVYYCAAVSYGRSGYDYWGQGTQVTVSS
polyreactivity (PSR sort gate): high polyreactivity

QVQLEESAGGLVQAGGSLRLSCAASGSIFAYYAMGWYRQAPGKERELVAVIRSGGSTYYADSVKGRFTISRDNAKNTVYFQMNSLKPEDTAVYYCAARSYRPTRGDYWGQGTQVTVSS
polyreactivity (PSR sort gate): high polyreactivity

QEQLQERGGGLVQAGGSQRLGCAASGNISDAGYMGLYRQAPGKERELVAAIAAGSNTNYADSVKGRFTISRDNAKNTVYLQMNSLKPEDTAVFYCAVASYALVQYEYWGQGTQVTVNS
polyreactivity (PSR sort gate): low polyreactivity

QVQLVESGGGLVQAGGSLRLSCADSGSTIYGYAMGWYRQAPGKERELVAAISISGGGTYYADSVKGRFTISRDNAKNSVYLQMNSLKPEDTAVYYCARRYFWGQGTQVTVSS
polyreactivity (PSR sort gate): low polyreactivity

QVQLVESGGGLVQAGGSLRLSCAASGRIFTFYAMGWYRQAPGKERELVAAITSGGSTYYADSVKGRFTISRDNAKKTVYLQMNSLKPEDTAVYYCNTYPGSRHGWYDYWGQVTQVTVSS
polyreactivity (PSR sort gate): high polyreactivity

QVQLVESGGGLVQAGGSLRLSCAASGLIFYDNMGGYRQAPGKERELVAAISSSGGSTSYADSVKGRFTISRDNAKNTVSLQMNSLNPEDSAVYYCTVSPGVWRSIPLYYNLLYGYWGQGTQVTVSS
polyreactivity (PSR sort gate): low polyreactivity

QVQLVESGGGLVQAGGSLRLSCAASGRIFGRNAMGWYRQAPGKERELVASITWTGGSTYYADSVKGRFTISRDNAKNTVYLQMNSLKPEDTAVYYCAAETWYGSSWWDAGEYYYWGQGTQVTVSS
polyreactivity (PSR sort gate): high polyreactivity

QVQLVESGGGLVQAGGSLRLSCAASVRIFPIYAMGWYRQAPGKERELVAAIDSGGSTTYADSVKGRFTISRDNAKNTVYLQMNSLKPEDTAVYYCSAKGAYPYWYPVAYRYDYWGQGTQVTVSS
polyreactivity (PSR sort gate): low polyreactivity

QVQLVESGGGLVQAGGSLRLSCAASGRTFPYYAMGLYRQAPGKERELVATITRGGSTYYADSVKGRFTISRDNAKNTVYLQMNSLKPEDTAVYYCAVDAYYEMDYWGQGTQLTVSS
polyreactivity (PSR sort gate): low polyreactivity

QVQLVESGGSLLQAGCSLRLSCAASGFIIAWYAMGWSRQAPGKEWELVAAISLSGGSTRYADSVKGRFTISRDNAKNPVYLQMNCLKPEDTAVYYCNVDRWASTEYDYWGQGTQVTVSS
polyreactivity (PSR sort gate): low polyreactivity

QVQLVESRGGLVQAGGSLRLSCAASGRIFSWYSMGWYRQPPGTERELVAGISWIGGSTYYADSVKGRFTFSRDNAKNTVYLQMISLKPEDTAVYYCNAEYFGEYRDYGYWGQGTQVTVSS
polyreactivity (PSR sort gate): low polyreactivity

QVQLVESGGGLVQAGGSLRLSCAASGRTFIGYAMGWYRHAPGKERELVATISVSGGSTYYADSVKGRFTISRDNAKNTVYLQMKSLKPEDTAVYYCDKAYLRYYDGPYDYWGQGTQVTVSS
polyreactivity (PSR sort gate): low polyreactivity

QVQLVESGGGLVQAGGRLRLSCAASGRIFRYNAMGWYRQAPGKERELVASITSAGSTNYADSVKGRFTISRDNAKITVYLLMNSLKPEDTEVYYCNKRRAYGYYLFDYWGQGTQVTVSS
polyreactivity (PSR sort gate): high polyreactivity

HVQLVESGGGLVQAGGSLRLSCAASGSIFKRYAMGWYTQAPGKERELVAAITSGGSTNYADSVKGRFTISRDNAKNTVYLQMNSLKPEDTAVYYCAAEHDYYPSNLDYWGQGTQVTVSS
polyreactivity (PSR sort gate): low polyreactivity

QVQLVESGGGLVQAGGSLRLSCAASGSTFTAKAMGWYRQAPGKERELVASISARDGSTYADSVKGRFTISRDNAKNTVYLQMNSLKPEDTAVYYCNAAYFHIFPYDYDYWGQGTQVTVSS
polyreactivity (PSR sort gate): low polyreactivity

QVHLVESGGGLVQAGGSLRLSCDASGSIIDGYGMGWYRQAPGKERELVASITWNDGSTYYADSVKGRFTISRDNAKNTVYLQMNSLKPEDTAVYYCAADQWGYEYDYWGQGTQVTVSS
polyreactivity (PSR sort gate): low polyreactivity

Source: the nanobody polyreactivity screen of Harvey et al. (2022)
